Test results as given in article PMC4007562.

How the values were obtained:
Assay in all cases: ITC; MicroCal iTC200, 25°C, 20 mM Tris/HCl pH 9.0, 100 mM NaCl; SH3B6, sdAb19 or Neffin at 200 μM injected from the syringe into 20 μM Nef in the cell
[1] = molecular target: HIV-1 NefNA7 (41–206, C206A) (HIV-1 (NA7))
[2] = molecular target: HIV-1 NefSF2 (45–210, C59S, C210A) (HIV-1 (SF2)) (UniProt P03407)
[3] = molecular target: HIV-1 Nef_(NL4–3) (41–206, C206A) (HIV-1 (NL4-3))

Substance	Kd [1]	dH [1]	stoichiometry N [1]	Kd [2]	dH [2]	stoichiometry N [2]	Kd [3]	dH [3]	stoichiometry N [3]
Neffin (sdAb19–SH3B6 fusion, 8 aa linker) (from UniProt P08631 77-138) (designed binder)	14.4 nM	-34.7 kcal/mol	0.67	1.6 nM	-38.3 kcal/mol	0.66	3.9 nM	-33.2 kcal/mol	0.65
Neffin_(triple) (Neffin with D60R/G102R/S103E in the sdAb19 subunit) (from UniProt P08631 77-138) (designed binder)				23.3 nM	-18.1 kcal/mol	1.08			
human Hck-SH3B6 (residues 79–138 of human Hck) (from UniProt P08631 79-138) (designed binder)				18.7 nM	-22.5 kcal/mol	0.81			
